The record followed here is PMC8244301.

For assay [1], the target named is Truncated GG-SpaB (GG-SpaB_(C-trun)) protein (residues 31-184) (Lactobacillus rhamnosus GG). Briefly: BLI. The settings on record: group.
Assay [2] deals with Full-length L. rhamnosus GG SpaB (GG-SpaBFL) protein (residues 33-205) (Lactobacillus rhamnosus GG). Briefly: BLI. To be noted: group.
The target in assay [3] is Truncated L. rhamnosus GG SpaB (GG-SpaBC-trun) protein (residues 31-184) (Lactobacillus rhamnosus GG). Put plainly: BLI; GG-SpaB protein (10 uM) immobilised on aminopropylsilane (APS) biosensors; mucin Type II (~19.5-312 nM) as analyte; PBS (10 mM sodium phosphate pH 7.4, 137 mM NaCl, 2.7 mM KCl), 30 C; ~600 s association, ~900 s dissociation; 1:1 binding fit; in duplicate. (In general: In BLI a coated tip is dipped into the sample, and binding shifts an interference pattern.)

The target in assay [4] is Full-length L. rhamnosus GG SpaB (GG-SpaBFL) protein (residues 33-205) (Lactobacillus rhamnosus GG). Described as above.

By Kd is commonly meant a measure of binding affinity in units of concentration. A low value points to higher affinity. Regarding porcine gastric mucin (Type II), the Kd in assay [1] came to 2.6 nM; in assay [2] it was 0.3 nM.
For orientation: koff means the first-order rate constant of dissociation. Read a high koff as fast dissociation. Broadly, the kon is the rate constant with which the complex forms. In assay [3], “porcine gastric mucin (Type II) (Sigma-Aldrich)” displayed a Kd of 2.55 nM, a koff of 6.86e-05 s⁻¹ and a kon of 26300 M⁻¹ s⁻¹. In assay [4], this substance had a dissociation constant (Kd) of 0.306 nM, a koff of 1.09e-05 s⁻¹ and a kon of 35300 M⁻¹ s⁻¹.
